Assay: yeast display, Sf9 membrane polyspecificity reagent, FACS + sequencing; frameworks hold sequencing errors
Outline: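 Synthetic nanobody libraries on Saccharomyces cerevisiae BJ5465 were galactose-induced for 36–48 hours, stained 1 hour at 4 °C with 10% biotinylated, detergent-solubilized Sf9 membrane reagent and enriched on streptavidin microbeads. FACS then separated cells into low and high (top ~1%) gates by anti-HA (expression) and streptavidin (reagent binding) fluorescence. Genes were colony-PCR amplified, MiSeq 2 × 250 sequenced and CDR-length filtered. A clone's polyreactivity label is that of its gate of origin.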
With “QVQLVESGGGLVQAGGSLRLSCAASGSTFVQYVMGWYRQAPGKERELVAAISSSGGSTYYADSVKGRFTISRDNAKNTVYLQMNSLKPEDTAVYDCAARRLPRPWTSTSDYWGQGTQVTVSS” the “polyreactivity (PSR sort gate)” value was “high polyreactivity”. With “QVQLVESGGGLVQAGGSLRLSCAASGSTFVQYVMGWYRQAPGKERELVAAISSSGGSTYYADSVKGRFTISRDNAKNTVYLQMNSLKPEDTAVYYCAAYYFVAQARYDYWGQGTQVTVSS” the “polyreactivity (PSR sort gate)” value was “high polyreactivity”. For “QVQLVESGGGLVQAGGSLRLSCAASGSTFVRNAMGWYRQAPGKERELVAAISRSGGRTYYADSVKGRFTISRDNAKNTVYLQMNSLKPEDNAVYYCNAVLGYYSYDYWGQGTQVTVSS”, the “polyreactivity (PSR sort gate)” value was “high polyreactivity”. In the case of “QVQLVESGGGLVQAGGSLRLSCAASGSTFVRYAMGWYRQAPGKEREFVAAISKRGGSTYYADSVKGRFTISRDIAKNTVYLQMNSLKPEDTAVYYCATYLLRDAPGLHQVGYWGQGTQVTVSS”, the “polyreactivity (PSR sort gate)” value is reported as “high polyreactivity”. With “QVQLVESGGGLVQAGGSLRLSCAASGSTFVRYAMGWYRQAPGKERELVAAISKSGGSTYYADSVKGRFTISRDNAKNTVYLQMNSLKPEDTAVYYCNADVYKNSKFRIMGYWGQGTQVTVSS” the “polyreactivity (PSR sort gate)” value was “high polyreactivity”. With “QVQLVESGGGLVQAGGSLRLSCAASGSTFVRYAMGWYRQAPGKEWELVARISGRSGSTYYADSEKGRFTISRDNAKNTVYLQMNSLKPEDTAVYFCAARAWYRVYAYDVWGQGTQVTVSS” the “polyreactivity (PSR sort gate)” value was “high polyreactivity”. For “QVQLVESGGGLVQAGGSLRLSCAASGSTFVRYVMGWYRQAPGKERELVAAISRRGGSTYYADSVKGRFTIARDNAKNTVYLQMNSLKPDDTAVYYCAAVYRLRGAFSRGYWGQGTQVTVSS”, the “polyreactivity (PSR sort gate)” value was “high polyreactivity”. In the case of “QVQLVESGGGLVQAGGSLRLSCAASGSTFVRYVMGWYRQAPGKERELVAAISRRGGSTYYADSVKGRFTISRDHAKNTVYLQMNSLKPEDTAVYYCARTVGYRTLLESDSWGQGTQVTVSS”, the “polyreactivity (PSR sort gate)” value is reported as “high polyreactivity”. In the case of “QVQLVESGGGLVQAGGSLRLSCAASGSTFVSNAMGWYRQAPGKERELVAAISTSGGSTYYADSVKGRFTISRDNAKNTVYLQMNSLKPEDTAVYYCAKLLARGFRIWQDYDYWGQGTEVTVSS”, the “polyreactivity (PSR sort gate)” value is reported as “low polyreactivity”. In the case of “QVQLVESGGGLVQAGGSLRLSCAASGSTFVSYAMGWYRQAPGKERELVAAISWSGGSTYYADSVKGRFTISRDNAKNTVYLQMNSLKTEDTAVYYCAAELDWWYDYWGQGTQVTVSS”, the “polyreactivity (PSR sort gate)” value is reported as “high polyreactivity”. With “QVQLVESGGGLVQAGGSLRLSCAASGSTFVSYAMGWYRQAPGKERELVAAITWRGDSTYYADSVKGRFTISRDNAKNTVYLQMNSLKPEDTAVYYCAADGRSWRYYSPYYYWGQGTQVTVSS” the “polyreactivity (PSR sort gate)” value was “low polyreactivity”. For “QVQLVESGGGLVQAGGSLRLSCAASGSTFVSYAMGWYRQAPGKERELVAAITWRGDSTYYADSVKGRFTLSRDNAKNTVYLQMNSLKPEDTAVYYCAADGRSWRYYSPYYYWGQGTQVTVSS”, the “polyreactivity (PSR sort gate)” value was “low polyreactivity”. For “QVQLVESGGGLVQAGGSLRLSCAASGSTFVTYAMGWYRQAPGKEREFVAAISRTGGSTYYADSVKGRFTISRDNAKYTVYLQMNSLKPEDSAVYYCNRVGRGYSHNQYDLGYWGQGTLVTVSS”, the “polyreactivity (PSR sort gate)” value was “low polyreactivity”. For “QVQLVESGGGLVQAGGSLRLSCAASGSTFVTYTMGWYRQAPGKERELVAAISWSGDTTYADSVKGRFTISRDNAKNTVYLQMNSLKPEDTAVYYCAADDDWSGVEFDYWGQGTQVTVSS”, the “polyreactivity (PSR sort gate)” value was “low polyreactivity”. In the case of “QVQLVESGGGLVQAGGSLRLSCAASGSTFVVNAMGCYRQAPGKERELVAAITQSGGSTFYADSVKGRFTISRDNAKNTVYLQMNSLKPEDTAVYYWGQGTQVTVSS”, the “polyreactivity (PSR sort gate)” value is reported as “low polyreactivity”. With “QVQLVESGGGLVQAGGSLRLSCAASGSTFVVNAMGWYRQAPGKERELVAAIRSGSSTNYADSVKGRFTISRDNAKNTVYLQMNSLKPEDTAVYYCAARSKYTHSRQSDYWGQGTQVTVSS” the “polyreactivity (PSR sort gate)” value was “low polyreactivity”. In the case of “QVQLVESGGGLVQAGGSLRLSCAASGSTFVWKAMGWYRQAPGKERELVAAISSSGGITYYADSVKGRFTISRDNAKNPVYLQMNSLKPEDTAVYYCAAERDDDWVNYWGQGTQVTVSS”, the “polyreactivity (PSR sort gate)” value is reported as “low polyreactivity”. With “QVQLVESGGGLVQAGGSLRLSCAASGSTFVWNAMGGYRQAPGKERELVAAITNDGRTNYADSVKGRFTISRDNAKNTVYLQMNSRKPEDTAVYYCNADGYNSYWWNYYWGQGTQVTVSS” the “polyreactivity (PSR sort gate)” value was “low polyreactivity”. With “QVQLVESGGGLVQAGGSLRLSCAASGSTFVWNAMGWYRQAPGKERELVATITLSTGSSYYADSVKGRFTISRDNAKNTVYLQMNSLKPEDTAVYYCNTEIYVDIISDYGYWGQGTQLTVSS” the “polyreactivity (PSR sort gate)” value was “low polyreactivity”. With “QVQLVESGGGLVQAGGSLRLSCAASGSTFVWYAKGWYIQAPGKERELVAAINFGGTTYYADSVKGRFTISRDNAKNTVYLQMNSLKPEETAVYYCATEYDYGSWFPDGWGIFDYWGQGTQVTVSS” the “polyreactivity (PSR sort gate)” value was “low polyreactivity”. For “QVQLVESGGGLVQAGGSLRLSCAASGSTFVWYAMGRYRLAPGKERELVAVIDWSGGSTSYADSVKGRFTISRDNAKNTVYLQMNSLKPEDTAVYYCNKGSSLFHWYYHWGQGTQVTVSS”, the “polyreactivity (PSR sort gate)” value was “low polyreactivity”. For “QVQLVESGGGLVQAGGSLRLSCAASGSTFVYNAMGWYRQAPGKEREFVAVINWSGGRTYADSVKGRFTISRDNAKNTVYLQMNSLKPEDTAVYYCNAERRTYRVALQYRRYDYWGQGTQVTVSS”, the “polyreactivity (PSR sort gate)” value was “high polyreactivity”. In the case of “QVQLVESGGGLVQAGGSLRLSCAASGSTFVYNAMGWYRQAPGKERELVAAITVIGGRTYYADSVKGRFTISRDNAKNTVYLQMNSLKPEDTAVYYCAAVTYWFWPGMDYWGQGTQVTVSS”, the “polyreactivity (PSR sort gate)” value is reported as “low polyreactivity”. With “QVQLVESGGGLVQAGGSLRLSCAASGSTFVYNAMGWYRQAPGKERELVAGISSSGGRTYYADSVKGRFTISRDNAKNTVYLQMNSLKPEDTAVYYCATGYRQGEYDYWGQGTQVTVSS” the “polyreactivity (PSR sort gate)” value was “low polyreactivity”. In the case of “QVQLVESGGGLVQAGGSLRLSCAASGSTFVYNAMGWYRQAPGKERELVAGISSSGGRTYYADSVKGRFTISRDNAKNTVYLQMNSLKPEDTAVYYCNVVTYRRFDYWGQGTQVTVSS”, the “polyreactivity (PSR sort gate)” value is reported as “low polyreactivity”. For “QVQLVESGGGLVQAGGSLRLSCAASGSTFVYNDMGWYRQAPGKEREFVAVINWSGGRTYADSVKGRFTISRDNAKNTVYLQMNSLKPEDTAVYYCNARRRTGYRPAMDYWGQGTQVTVSS”, the “polyreactivity (PSR sort gate)” value was “high polyreactivity”. With “QVQLVESGGGLVQAGGSLRLSCAASGSTFVYNTMGWYRQAPGKERELVAAISKSGTNTFYADSVKGRFTISRDNAKNTVYLQMNSLKPEDTAVYYCAVRSVPRWFTELDYWGQGTQVTVSS” the “polyreactivity (PSR sort gate)” value was “low polyreactivity”. For “QVQLVESGGGLVQAGGSLRLSCAASGSTFVYYAMGWYRQAPGKEREFVAGITRRTGSTYYADSVKGRFTISRDNAKNTVYLQMNSLKPEDTAVYYCAKRDARATPFGYWGQGTQVTVSS”, the “polyreactivity (PSR sort gate)” value was “high polyreactivity”. For “QVQLVESGGGLVQAGGSLRLSCAASGSTFVYYAMGWYRQAPGKERELVAAISYSGGRTYYADSVKGRFTISRDNAKNTVYLQMNSLKQEDTAVYYCAAAYVKFYGYSAEYDYWGQGTQVTVSS”, the “polyreactivity (PSR sort gate)” value was “low polyreactivity”. For “QVQLVESGGGLVQAGGSLRLSCAASGSTFVYYAMGWYRQAPGKERELVATINYNGGSTSYADSVKGRFTISRDNEKNTVYLQMNSLKPEDTAVYYCAKDRYYTWGDYWGQGTQVTVSS”, the “polyreactivity (PSR sort gate)” value was “low polyreactivity”. In the case of “QVQLVESGGGLVQAGGSLRLSCAASGSTFVYYAMGWYRQAPGKERELVAVISDDGGTYYADSVKGRFSISRDNAKNTVYLQMNSLKPEDTAVYYCAKDYYGGAYYWYNDRSGDYWGQGTQVTVSS”, the “polyreactivity (PSR sort gate)” value is reported as “low polyreactivity”. With “QVQLVESGGGLVQAGGSLRLSCAASGSTFVYYAMGWYRQAPGTERELVAAITGSVDSTYYADSVKGRFTISRDNAKNPVYLQMNSLQPEDTAVYYCAADTYSTYWGQGTQVTVSS” the “polyreactivity (PSR sort gate)” value was “low polyreactivity”. In the case of “QVQLVESGGGLVQAGGSLRLSCAASGSTFWANAMGWYRQAPGKERELVAAITSTGITYYADSVKGRFTISRDNAKNTVYLQMNSLKPEDTAVYYCNTRGTYRYDYWGQGTQVTVSS”, the “polyreactivity (PSR sort gate)” value is reported as “low polyreactivity”. With “QVQLVESGGGLVQAGGSLRLSCAASGSTFWAYALGWYRHAPGKERELVAAITTGGGRTFYADSVMGRFTISRDNGKNTVYLQLNSLIPEDTAVYYCGAVSQSYRMYYWGQGTQVTVSS” the “polyreactivity (PSR sort gate)” value was “low polyreactivity”. With “QVQLVESGGGLVQAGGSLRLSCAASGSTFWAYVMGWYRQAPGKERELVAAISKSGVRTHYADSVKGRFTISRDNAKNTVYLQMNSLKPEDNAVYYCAAGGVGNLDDYWGQGTQVTVSS” the “polyreactivity (PSR sort gate)” value was “high polyreactivity”. For “QVQLVESGGGLVQAGGSLRLSCAASGSTFWDYDMGWYRQAPGKERELVASIRNGGSTNYADSVKGRFTISRDNAKNTVYLQMNSLKPEDTAVYYCAADRQPVYPSLGVYWDYGHDYWGQGTQVTVSS”, the “polyreactivity (PSR sort gate)” value was “low polyreactivity”. In the case of “QVQLVESGGGLVQAGGSLRLSCAASGSTFWFNAMGWYRQAPGKERELVAAISGRGGNTYYADSVKGRFTISRVNAKNTVYLQMYSLKPEDTAVYYCNAVYLYAYRVRYYYGRYDYWGQGTQVTVSS”, the “polyreactivity (PSR sort gate)” value is reported as “high polyreactivity”. For “QVQLVESGGGLVQAGGSLRLSCAASGSTFWFNAMGWYRQAPGKERELVAAITYRGASTNYADSVKGRFTISRDNAKNTVYLQMNSLKPEDTAVYYCATRPTWRPVPDSDVSTYGYWGQGTQVTVSS”, the “polyreactivity (PSR sort gate)” value was “low polyreactivity”. In the case of “QVQLVESGGGLVQAGGSLRLSCAASGSTFWFNDMGWYRQAPGKEREFVAAISSIGGSTYYADSVKGRFTISRDNAKNTVYLQMNSLKPEDTAVYYCAADRLQYYNPYDYWGQGTQVTVSS”, the “polyreactivity (PSR sort gate)” value is reported as “low polyreactivity”. In the case of “QVQLVESGGGLVQAGGSLRLSCAASGSTFWFYAMGWYRQAPGKERELDAAISNGDSTNYADSVKGRFTISRDNAKNTVYLQMNSLKPEDTAVYYCAADQVYGIGYEYWGQGTQVTVSS”, the “polyreactivity (PSR sort gate)” value is reported as “low polyreactivity”. With “QVQLVESGGGLVQAGGSLRLSCAASGSTFWFYAMGWYRQSPGKERELVAVISNSGSTYYADSVKGRFTISRDNAKNTVYLQMNSLKPEDTAVYYCNKDGGGDSYWYDYWGQGTQVTVSS” the “polyreactivity (PSR sort gate)” value was “low polyreactivity”. In the case of “QVQLVESGGGLVQAGGSLRLSCAASGSTFWGYAMGWSRQAPGKERELVASITTSDSTYYADSVKGRFTISRDNAKNTVYLQMNSLKPEDSAVYYCAADETWPEYDYWGQGSQVTVSS”, the “polyreactivity (PSR sort gate)” value is reported as “low polyreactivity”. In the case of “QVQLVESGGGLVQAGGSLRLSCAASGSTFWGYTMGWYRQAPGKERELVAAISTIGGSTYYADSVKGRFTISRDNAKNTVYLQMNSLKPEDTAVYYCAAEVYTFSGTSWVKDGGYWGQGTQVTVSS”, the “polyreactivity (PSR sort gate)” value is reported as “low polyreactivity”.
